Key:
human C4b (human) = molecular target: T1, human C4b (human) (UniProt P0C0L5)
T1 sequence: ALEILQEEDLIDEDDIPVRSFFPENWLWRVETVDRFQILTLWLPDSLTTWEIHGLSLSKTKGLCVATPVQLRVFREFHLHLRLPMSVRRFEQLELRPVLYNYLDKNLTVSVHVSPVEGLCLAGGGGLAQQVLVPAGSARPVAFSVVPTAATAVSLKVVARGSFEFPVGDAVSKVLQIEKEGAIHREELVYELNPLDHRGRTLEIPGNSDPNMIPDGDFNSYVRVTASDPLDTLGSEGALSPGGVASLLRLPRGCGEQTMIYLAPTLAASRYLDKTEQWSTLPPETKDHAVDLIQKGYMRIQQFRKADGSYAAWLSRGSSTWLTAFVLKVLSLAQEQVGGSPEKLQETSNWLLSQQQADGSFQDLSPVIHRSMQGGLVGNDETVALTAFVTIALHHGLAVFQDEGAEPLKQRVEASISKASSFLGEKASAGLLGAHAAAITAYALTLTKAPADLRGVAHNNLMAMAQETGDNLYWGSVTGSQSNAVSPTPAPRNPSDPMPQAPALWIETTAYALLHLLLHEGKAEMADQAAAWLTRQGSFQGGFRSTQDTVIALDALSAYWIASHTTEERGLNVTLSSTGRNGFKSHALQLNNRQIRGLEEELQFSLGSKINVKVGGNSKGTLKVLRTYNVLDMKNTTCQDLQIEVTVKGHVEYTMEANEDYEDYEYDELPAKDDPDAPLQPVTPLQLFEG

[1] = molecular target: soluble human C3b (human) (UniProt P01024)

C4b Screen Ref Fold (fold vs CFI-HSA wild type) (human C4b (human))	iC3b Screen Ref Fold (fold vs CFI-HSA wild type) [1]	Substance	also measured
0.97	0.66	fH_CCP1-4; GGGGSS(9); wt hCFI (enzyme)	
4.36	0.1	CFI-HSA E457G; N531G; E461Q; R462K; F464Y; GGSSGG (SEQ ID NO: 6); CR1 (ccp15-17) (from UniProt P17927) (enzyme)	
0.01	0.03	CFI-HSA variant Δ(K1-P305); Y408L; N531G; E457G; E461Q; R462K; F464Y (enzyme)	
2.87	0.01	CFI-HSA E457G; N531G; E461Q; R462K; F464Y; E530Y; GGSSGG (SEQ ID NO: 6); CR1(ccp15-17) (from UniProt P17927) (enzyme)	
0.12	0.04	CFI-HSA variant 514-MDANNVT (SEQ ID NO: 13)-520 --> NG (enzyme)	
2.71	2.05	CFI-HSA N531G; D425R; E530Y (enzyme)	
0.75	0.86	CFI-HSA D549G (enzyme)	
1.67	0.24	CFI-HSA Y408L; E457G; E461Q; R462K; N531G; ΔC-term (Δ558-PFISQYNV (SEQ ID NO: 14)-565) (enzyme)	
4.38	2.31	CFI-HSA T377G; E457G (enzyme)	
	0.64	CFI-HSA variant K504Q (enzyme)	
4.29	1.73	CFI-HSA E457G; D425R; E530Y (enzyme)	
	0.03	CFI-HSA variant Y4081 (enzyme)	
0.39	1.01	CFI-HSA R365K (enzyme)	
3.27	0.16	CFI-HSA R557I (enzyme)	
0.18	0.07	CFI-HSA R365P (enzyme)	
	0.03	CFI-HSA variant I317D-R318D-R319D-K320D-R321K (enzyme)	
0.18	0.64	CFI-HSA R365Q (enzyme)	
0.51	0.38	CFI-HSA Y553E (enzyme)	
-0.02	0.01	CFI-HSA variant K504P (enzyme)	
1.1	0.84	CFI-HSA D549Q (enzyme)	
4.98	1.57	CFI-HSA D425R; Y408L; N531G; E457G; E461Q; R462K; F464Y; E530Y (enzyme)	
0.96	0.83	CFI-HSA variant E38A; D425R (enzyme)	
1.85	0.3	CFI-HSA Y408L; N531G; ΔC-term (Δ558-PFISQYNV (SEQ ID NO: 14)-565) (enzyme)	

The remaining lines, values behind:

Substance	C4b Screen Ref Fold (fold vs CFI-HSA wild type) (human C4b (human))	iC3b Screen Ref Fold (fold vs CFI-HSA wild type) [1]	also measured
CFI-HSA variant A328C; W468C (enzyme)	-0.06	0	
CFI-HSA variant D425K; E457G; E461Q; N531G; R557A (enzyme)			C4b Screen Ref Fold (fold relative to CFI-HSA wild type) (human C4b (human)): 2.8; iC3b Screen Ref Fold (fold relative to CFI-HSA wild type) [1]: 0.08
CFI-HSA R557V (enzyme)	2.23	0.21	
CFI-HSA variant Y408L; E457G; P535G; K534Q (enzyme)			C4b Screen Ref Fold (fold of CFI-HSA wild type) (human C4b (human)): 1.43; iC3b Screen Ref Fold (fold of CFI-HSA wild type) [1]: 0.53
CFI-HSA D549A (enzyme)	1.04	0.66	
CFI-HSA variant Y408L; N531G; WT; GGSSGG (SEQ ID NO: 6); CR1(ccp15-17) (from UniProt P17927) (enzyme)			C4b Screen Ref Fold (fold of CFI-HSA wild type) (human C4b (human)): 4.17; iC3b Screen Ref Fold (fold of CFI-HSA wild type) [1]: 0.22
CFI-HSA variant Y408D (enzyme)		0.02	
CFI-HSA variant Y408L; E457G; P535G; WT; GGSSGG (SEQ ID NO: 6); CR1(ccp15-17) (from UniProt P17927) (enzyme)			C4b Screen Ref Fold (fold of CFI-HSA wild type) (human C4b (human)): 1.99; iC3b Screen Ref Fold (fold of CFI-HSA wild type) [1]: 0.23
CFI-HSA variant Y408L; E457G; WT; GGSSGG (SEQ ID NO: 6); CR1(ccp15-17) (from UniProt P17927) (enzyme)			C4b Screen Ref Fold (fold of CFI-HSA wild type) (human C4b (human)): 3.18; iC3b Screen Ref Fold (fold of CFI-HSA wild type) [1]: 0.12
CFI-HSA K424R (enzyme)	0.32	0.97	
CFI-HSA variant Y553H; V565I (enzyme)			C4b Screen Ref Fold (fold of CFI-HSA wild type) (human C4b (human)): 1.97; iC3b Screen Ref Fold (fold of CFI-HSA wild type) [1]: 1.32
CFI-HSA D549R (enzyme)	0.52	0.27	
CFI-HSA variant N85Q (enzyme)	0.66	2.47	
CFI-HSA variant Y408L; N531G; P535G; P558S (enzyme)			C4b Screen Ref Fold (fold of CFI-HSA wild type) (human C4b (human)): 1.02; iC3b Screen Ref Fold (fold of CFI-HSA wild type) [1]: 1.28
CFI-HSA K424G (enzyme)	0.32	1.44	
CFI-HSA K424D (enzyme)	0.27	1.15	
CFI-HSA R327G (enzyme)	0.26	0.5	
(HSA-GS)-V311-V565 - G(10) - K1-G310; C309S; C435S (enzyme)	0.21	0.03	
CFI-HSA variant P535G; N422K (enzyme)			C4b Screen Ref Fold (fold of CFI-HSA wild type) (human C4b (human)): 0.09; iC3b Screen Ref Fold (fold of CFI-HSA wild type) [1]: 0.52
CFI-HSA T377G; N531G (enzyme)	4.53	2.34	

Substance	C4b Screen Ref Fold (fold vs CFI-HSA wild type) (human C4b (human))	iC3b Screen Ref Fold (fold vs CFI-HSA wild type) [1]	also measured
CFI-HSA variant Y403F; D425K; E457G; E461Q; K504Y; N531G (enzyme)			C4b Screen Ref Fold (fold relative to CFI-HSA wild type) (human C4b (human)): 3.11; iC3b Screen Ref Fold (fold relative to CFI-HSA wild type) [1]: 0.03
CFI-HSA variant Y408L; P558S (enzyme)			C4b Screen Ref Fold (fold of CFI-HSA wild type) (human C4b (human)): 0.31; iC3b Screen Ref Fold (fold of CFI-HSA wild type) [1]: 0.86
CFI-HSA variant Y408L; D425K (enzyme)			C4b Screen Ref Fold (fold of CFI-HSA wild type) (human C4b (human)): 1.29; iC3b Screen Ref Fold (fold of CFI-HSA wild type) [1]: 1.14
CFI-HSA variant Y403F; G406A; D425K; E457G; E461Q; K504Y; N531G (enzyme)			C4b Screen Ref Fold (fold relative to CFI-HSA wild type) (human C4b (human)): 3.16; iC3b Screen Ref Fold (fold relative to CFI-HSA wild type) [1]: 0.02
CFI-HSA Y408L; E457G; E461Q; R462K; N531G; R557A (enzyme)	3.22	1.29	
CFI-HSA N531G; E530Y (enzyme)	3.41	2.48	
CFI-HSA variant T346R; K504E; E530R (enzyme)			iC3b Screen Ref Fold (fold of reference) [1]: 0.51
CFI-HSA variant Δ(S308) (enzyme)			C4b Screen Ref Fold (fold relative to CFI-HSA wild type) (human C4b (human)): 0.21; iC3b Screen Ref Fold (fold relative to CFI-HSA wild type) [1]: -0.01
CFI-HSA A405G (enzyme)	1.06	1.74	
CFI-HSA variant E457G; P535G; WT; GGSSGG (SEQ ID NO: 6); CR1(ccp15-17) (from UniProt P17927) (enzyme)			C4b Screen Ref Fold (fold of CFI-HSA wild type) (human C4b (human)): 3.89; iC3b Screen Ref Fold (fold of CFI-HSA wild type) [1]: 0.07
CFI-HSA variant R327P (enzyme)	1.67	0.67	
CFI-HSA variant E457G; WT; GGSSGG (SEQ ID NO: 6); CR1(ccp15-17) (from UniProt P17927) (enzyme)			C4b Screen Ref Fold (fold of CFI-HSA wild type) (human C4b (human)): 6.11; iC3b Screen Ref Fold (fold of CFI-HSA wild type) [1]: 0.1
CFI-HSA variant H370A (enzyme)	0.37	0.57	
CFI-HSA variant G556P (enzyme)			C4b Screen Ref Fold (fold of CFI-HSA wild type) (human C4b (human)): 0.65; iC3b Screen Ref Fold (fold of CFI-HSA wild type) [1]: 0.39
CFI-HSA variant Y408W (enzyme)			iC3b Screen Ref Fold (fold of reference) [1]: 0.82
CFI-HSA variant N446Q; N476Q; N518Q (enzyme)		0.06	
CFI-HSA variant Y408K (enzyme)		0.65	
CFI-HSA variant Y408E (enzyme)			iC3b Screen Ref Fold (fold of reference) [1]: 0.23
CFI-HSA variant Y408V (enzyme)			iC3b Screen Ref Fold (fold of reference) [1]: 0
CFI-HSA variant Y408T (enzyme)		0.04	
